# From publication PMC8082267, “Inhibition of the PP2A activity by the histone chaperone ANP32B is long-range allosterically regulated by respiratory cytochrome c” (Redox Biology, 2021)
# What was measured:
# Conditions in all cases: both partners purified
# [1] = biological target: T1, full-length ANP32B (ANP32B_(1-251)), recombinant (human, UniProt Q92688-1 1-251); test: ITC; high ionic strength: reduced Cc injected into ANP32B_(1-251), 10 mM sodium phosphate pH 7.4 with 150 mM NaCl
# T1 construct: cloned by PCR from cDNA (Geneservice, UK) into pET28a(+); source: E. coli BL21 (DE3) pLysS, purified (Ni-NTA, Superdex 200)
# [2] = biological target: T2, ANP32B construct lacking its Nuclear Localization Signal sequence (ANP32B_(1-231)) (human, UniProt Q92688-1 1-231); test: ITC; low ionic strength: 400 μM reduced Cc injected into ANP32B construct in the cell (50 μM ANP32B_(1-251), 40 μM ANP32B_(1-231), 50 μM ANP32B_(1-161)), 10 mM sodium phosphate pH 7.4; models with one or two independent binding sites
# T2 construct: lacks the 20-amino acid C-end stretch; source: E. coli BL21 (DE3) pLysS, purified (Ni-NTA, Superdex 200)
# [3] = biological target: T1, full-length ANP32B (ANP32B_(1-251)), …; test: as above
# [4] = biological target: T3, full-length ANP32B (ANP32B1-251) (human, UniProt Q92688-1 1-251); test: ITC; reduced Cc (400 uM stock) injected into ANP32B1-251 (50 uM) in the cell; 10 mM sodium phosphate pH 7.4 with 150 mM NaCl; single binding site
# T3 construct: also called Acidic leucine-rich Nuclear Phosphoprotein 32 family member B; source: E. coli BL21 (DE3) pLysS, pET28a(+), purified (Ni-NTA, Superdex 200)
# T3 sequence (Q92688 whole entry): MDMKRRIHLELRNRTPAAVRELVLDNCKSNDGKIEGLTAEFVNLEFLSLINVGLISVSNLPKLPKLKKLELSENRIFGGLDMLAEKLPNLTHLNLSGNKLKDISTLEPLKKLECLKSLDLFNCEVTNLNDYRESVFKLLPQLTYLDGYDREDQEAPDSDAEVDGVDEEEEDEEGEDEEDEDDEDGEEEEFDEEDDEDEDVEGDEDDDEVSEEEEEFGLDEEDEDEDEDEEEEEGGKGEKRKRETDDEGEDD
# T1 sequence (Q92688 whole entry): as above
# T2 sequence (Q92688 1-231): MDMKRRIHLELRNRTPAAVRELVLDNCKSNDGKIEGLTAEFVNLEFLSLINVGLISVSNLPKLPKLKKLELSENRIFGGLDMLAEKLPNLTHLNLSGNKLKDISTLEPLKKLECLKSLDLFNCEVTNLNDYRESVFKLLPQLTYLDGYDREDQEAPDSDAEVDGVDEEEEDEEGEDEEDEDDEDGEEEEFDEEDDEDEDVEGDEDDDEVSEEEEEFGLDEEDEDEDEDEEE
# Chain of cytochrome c (P99999 2-105): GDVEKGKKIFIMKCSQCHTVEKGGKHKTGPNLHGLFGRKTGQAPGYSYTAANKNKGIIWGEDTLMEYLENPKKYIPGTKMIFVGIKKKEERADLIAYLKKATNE
Binder,stoichiometry N [1],Kd [2],dH [2],stoichiometry N [2],"dH, higher-affinity site (two independent sites) [3]","dH, lower-affinity site (two independent sites) [3]",Kd [4],stoichiometry N [4]
"recombinant respiratory cytochrome c (natural protein, heme group (hemeprotein), reduced with sodium ascorbate; 15N-labelled in the HSQC titrations, cytochrome c, human; also called Cc; the hemeprotein) not shown",1,8 µM,-3.6 kcal/mol,1.09,-10.7 kcal/mol,29.5 kcal/mol,–,–
"cytochrome c (natural protein, heme group; kept in the reduced redox state; 15N-labelled in the NMR titrations, cytochrome c, human (the anti-human Cc serum was raised against this recombinant Cc); NMR assignment BMRB 5406 and structure PDB 1J3S are used for it; also called Cc; respiratory cytochrome c; source: E. coli BL21 (DE3), pBTR1 vector also encoding yeast heme lyase, purified (carboxymethyl cellulose ion exchange)) not shown",–,–,–,–,–,–,9.1 µM,1.2
